# ± gives the uncertainty stated by the source.
# Assay: self-splicing fitness, log relative to wild type (ln ratio); higher = more splicing; Tetrahymena group I intron in knt gene, E. coli kanamycin selection, DiMSum; sequences stand for … in CUCUCU…GGAGGGAAAAGUUAUCAGGCAUGCACCUGGUAGCUAGUCUUUAAACCAAUAGAUUGCAUCGGUUUAAAAGGCAAGACCGUCAAAUUGCGGGAAAGGGGUCAACAGCCGUUCAGUACCAAGUCUCAGGGGAAACUUUGAGAUGGCCUUGCAAAGGGUAUGGUAAUAAGCUGACGGACAUGGUCCUAACCACGCAGCCAAGUCCUAAGUCAACAGAUCUUCUGUUGAUAUGGAUGCAGUUCACAGACUAAAUGUCGGUCGGGGAAGAUGUAUUCUUCUCAUAAGAUAUAGUCGGACCUCUCCUUAAUGGGAGCUAGCGGAUGAAGUGAUGCAACACUGGAGCCGCUGGGAACUAAUUUGUAUGCGAAAGUAUAUUGAUUAGUUUUGGAGUACUCGUGGUCG
# Summary of the method: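 The eight P1ex-region nucleotides of an intron in the knt kanamycin-resistance gene on pET-22b(+) were all randomised and the library put into E. coli BL21(DE3). Six replicate transformations were grown overnight at 37°C or 30°C on LB agar with or without 25 μg/mL kanamycin, together with 100 μg/mL carbenicillin, 50 μM IPTG and 0.2% rhamnose. Colonies were pooled and amplicon-sequenced on an Illumina HiSeq 2500. Fitness from DiMSum is the error-weighted combination of wild-type-normalised replicate fold changes, kanamycin over none.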
Sequence,self-splicing fitness (ln) (30 °C),self-splicing fitness (ln) (37 °C)
GUCAAGCAAUAUUACGAGGU,-2.65 ± 0.26,-3.03 ± 0.37
GAUGAGCAAUAUUACGUAGG,-3.76 ± 0.27,-1.79 ± 0.26
CUCGAGCAAUAUUACGAUAU,-4.2 ± 0.31,-1.91 ± 0.25
UGCCAGCAAUAUUACGAUGU,-4.66 ± 0.26,-1.34 ± 0.15
AAUAAGCAAUAUUACGCGUA,-1.25 ± 0.14,-0.929 ± 0.13
GGUUAGCAAUAUUACGCAAA,-1.62 ± 0.39,-2.21 ± 0.31
CUGCAGCAAUAUUACGGUUA,-2.6 ± 0.16,-1.03 ± 0.12
GGCAAGCAAUAUUACGAUUC,0.184 ± 0.062,0.142 ± 0.091
GAUCAGCAAUAUUACGAGGU,-2.98 ± 0.24,-2.84 ± 0.22
CAGGAGCAAUAUUACGGUUU,-3.2 ± 0.41,–
GUUCAGCAAUAUUACGCCUC,-0.427 ± 0.14,0.0352 ± 0.16
GCGUAGCAAUAUUACGAAUG,-1.32 ± 0.11,-0.603 ± 0.13
CAGAAGCAAUAUUACGUCCA,-1.68 ± 0.14,-1.44 ± 0.21
UUGCAGCAAUAUUACGAACU,-2.25 ± 0.23,-2.11 ± 0.22
CCUUAGCAAUAUUACGUGCG,-3.52 ± 0.21,-2.04 ± 0.17
CGUCAGCAAUAUUACGCAUU,-3.62 ± 0.16,-2.31 ± 0.16
UCAAAGCAAUAUUACGAACA,-1.41 ± 0.18,-0.524 ± 0.15
ACAUAGCAAUAUUACGAACG,-1.2 ± 0.17,-0.114 ± 0.28
GUGCAGCAAUAUUACGAGGC,-1.83 ± 0.31,-2.43 ± 0.26
ACUGAGCAAUAUUACGCCGG,-2.48 ± 0.3,–

Sequence,self-splicing fitness (ln) (30 °C),self-splicing fitness (ln) (37 °C)
CUACAGCAAUAUUACGCUCG,-1.49 ± 0.089,-1.46 ± 0.13
AAGAAGCAAUAUUACGGGGC,–,-2.95 ± 0.26
GGCUAGCAAUAUUACGACCU,-0.605 ± 0.081,0.0864 ± 0.09
UUUAAGCAAUAUUACGACAG,-0.664 ± 0.15,-0.475 ± 0.2
ACGUAGCAAUAUUACGUCAG,-3.39 ± 0.18,-2.34 ± 0.2
GGACAGCAAUAUUACGGGAU,-2.05 ± 0.087,-0.814 ± 0.1
GAACAGCAAUAUUACGGAAG,-3.32 ± 0.14,-1.73 ± 0.16
GUGAAGCAAUAUUACGAAGC,-2.06 ± 0.08,-1.06 ± 0.11
CUAUAGCAAUAUUACGCACG,-0.606 ± 0.14,-0.255 ± 0.23
ACAGAGCAAUAUUACGUUAC,-3 ± 0.15,-2.96 ± 0.25
CAUCAGCAAUAUUACGGGCG,-0.567 ± 0.069,-0.377 ± 0.074
UACUAGCAAUAUUACGACGU,-2.22 ± 0.1,-1.29 ± 0.12
GGACAGCAAUAUUACGAGUG,-3.32 ± 0.17,-1.79 ± 0.15
UAACAGCAAUAUUACGCGGU,-3.25 ± 0.17,-3.29 ± 0.15
UGUUAGCAAUAUUACGUUCA,0.071 ± 0.12,-0.114 ± 0.14
CGCAAGCAAUAUUACGAUAA,-3.03 ± 0.19,-1.51 ± 0.23
GACUAGCAAUAUUACGGGGU,-4.18 ± 0.17,-2.91 ± 0.15
AUGGAGCAAUAUUACGGGUU,-2.3 ± 0.43,-3.16 ± 0.4
ACGGAGCAAUAUUACGAGAC,-0.64 ± 0.18,–

# Source: the supplement of paper PMC7877785
